{"source": "the nanobody polyreactivity screen of Harvey et al. (2022)", "data": [{"assay": "yeast display, Sf9 membrane polyspecificity reagent, FACS + sequencing; frameworks hold sequencing errors", "outline": "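After 36–48 hours of galactose induction, yeast (Saccharomyces cerevisiae BJ5465) displaying a synthetic nanobody library were stained at 4 °C for 1 hour with 10% biotinylated, detergent-solubilized Sf9 membrane reagent. Streptavidin microbeads enriched the stained cells before FACS sorting into low and high (top ~1%) gates on anti-HA and streptavidin fluorescence. Each clone's polyreactivity label reflects its gate of origin.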", "values": [{"sequence": "QVQLVESGGGLDQAGGSLRLSCAASGSIFGSYTLGGYRQAPGKERELVAVINWSGDRTYYADSVKGRFTISRDNAKNTVYLQMNSLKPEDTAVYYCAARERAAYSRIRYNYWGQGTQVTVSS", "polyreactivity (PSR sort gate)": "high polyreactivity"}, {"sequence": "QVQLVESGGGLVQAGGSLRLSCAASGRIFVYYTMGWYRQAPGKERELVAAITGSGGSTYYADSVKGRFTISRDNAKNTVYLQMNCLKPEDTAVYYCAARYASTGGGYKYYYWGQGTQVTVSS", "polyreactivity (PSR sort gate)": "high polyreactivity"}, {"sequence": "QVQLVESGGGLVQAGGSLRLSCAATGSTFDRNAMVWYRLAPGKERELVAAISWRGGRTYYADSVKGRFTISRDNAKNTVYLQMNSLKPEDTAVYYCSAKGPGIRSVEGYDYWGQGTQVTVSS", "polyreactivity (PSR sort gate)": "low polyreactivity"}, {"sequence": "QVQLVESGGGLVQAGGSLRLSCAASGITFIINAMGWYRQAPGKERELVAAISWRGGNTHYADSVKGRFTISRDYAKNTVYLQLNSLKAEVTAVYYCAARVTSRRDPDQKHGYWGQGTQVTVSS", "polyreactivity (PSR sort gate)": "high polyreactivity"}, {"sequence": "QVQLVESGGGLVQAGGSLRLSCAASGSIFYYYTMGWYRQAPGKERELVAAINSGGNTYYADSVKGRFTISRDNAKNTVYLQMNSLKPEDTAVYYCAAGPLYYDYDYWGQGTQVTVSS", "polyreactivity (PSR sort gate)": "low polyreactivity"}, {"sequence": "QVQLVESGGGLVQPGGSLRLSCSASGRIFDNYAMGWYRQAPGKEREFVARITSSGGSTYYADSVKGRFTISRDYAKNTVYLQMYSLKPEDTAVYYCAKRGWSSYCRYDSWGQGTQVTVSS", "polyreactivity (PSR sort gate)": "high polyreactivity"}, {"sequence": "QVQLVESGGGLVQAGGSLRLSCAASGYILRSNAMGWYRQAPGKEREFVAAITYSGGSTYYADSVKGRFTISRDNAKNTVYFQRNSLKPEATAVYSCSKTTRYRRGYGYWGQGTEVTVSS", "polyreactivity (PSR sort gate)": "low polyreactivity"}, {"sequence": "QVQLVESGGGLVQAGCSLRLSCAASGFTFQVYTMGSYRPAPGKERELVARISRRGGSTYYADSVKGRFTISRDNAKNTVYLQMNSLKPEDTAVYYCAADWYASSYRTYTFDYWGQGTQVTVSS", "polyreactivity (PSR sort gate)": "high polyreactivity"}, {"sequence": "QVQLVESGGGLVQAGGSLRLSCAGSGFTFAYYAMGWYRQAPGKERELVAAITRGGGRTFYADSVKGRFTISRDNAKNTVYLQMNSLKPEDTAVYYCAAVKDTTNSRGYGYWGQGTQVTVSS", "polyreactivity (PSR sort gate)": "high polyreactivity"}, {"sequence": "QVQLVQSGGGLVQAGGSLRLSCAASGSTFLSKAMGWYRQAPWKERQLVAAITTSGTSTFYADSVKGRFTISRDNAKNTVYLQMNSLKPADTAVYCAKDYLPYLHFVAPSTGDYDYWGQGTQVTVSS", "polyreactivity (PSR sort gate)": "low polyreactivity"}, {"sequence": "QVQLVESGGGLVQAGGSLRLSCAASGRTLKWYAMGWDRQAPGKERELVAAISWSGGSTYYADSVKGRFTISRDNAKNTVYLQMNSLKPEDTSVYYCAVAVTSYSSKKLYYWGQGTQVTVSS", "polyreactivity (PSR sort gate)": "low polyreactivity"}, {"sequence": "QVQLEESVGGLVQAGGSLRLICAASGSTFVYNAMGWYRPAPGTERELVAAISSGGSTDYADSVKGRFTISRDNAKNTVYLQMNSLKPEDTAVYYCAARPDYRYHYWGQGTQVTVSS", "polyreactivity (PSR sort gate)": "high polyreactivity"}, {"sequence": "QVQLVESGGGLVQAGGSLRFSCAASGFNFDQNAMGWYRQAPGQERELVAAITRRGGRTYYADSVKGRFTISRDNAKYTVYLQMNSLKPEDTAVYYCAALLPVHHRGYYWGQGTQVTVSS", "polyreactivity (PSR sort gate)": "high polyreactivity"}, {"sequence": "QVQLVESGGGLVQAGGSLRLSCAASGFSFKLYAMGWYRQAPGKEREFVAAINRSGGSTYYADSVKGRFTISRDNAKNTVYLQMNSLKPEDTAVYYCAALAYTLYDYWGQGTQVTVSS", "polyreactivity (PSR sort gate)": "high polyreactivity"}, {"sequence": "QVQLVESGGGLVQAGGSLRLSCAASGLILQYYVMGWYIQAPGKERELVAAITRSGGGTYYADSVKGRFTISRDNAKNTVYLQMNSLKPEDSAVYYCAAQRQYGKFDYWGQGTQVTVSS", "polyreactivity (PSR sort gate)": "high polyreactivity"}, {"sequence": "QVQLVESGGGLVQSGGSLRLSCAASGSIFDFYAMGWHRQAPGKERELVATITASGGSTYYADSVKGRFTISRDNAKITVYLQMNSLKPVDTAVYYCNADSVYWGQGTQVTVSS", "polyreactivity (PSR sort gate)": "low polyreactivity"}, {"sequence": "QVQLVESGGGLVQAGGSLRLSCAASGRIFTNYAMGWSRQAPGKERELVAAITGVGSTNYADSVKGRFTISRDNEKNTVYLQMNSLKPEDTAVYYCNAEYDYVSYVYTGFAFDYWGQGTQVTVSS", "polyreactivity (PSR sort gate)": "low polyreactivity"}, {"sequence": "QVQLVESGGGLVQAGGSLRLSCAASGSIFYGNAMGWYRPAPGKERELVAGITSGVGTNYADSVKGRFTISRDNAKNTVYLQMNSLKPEDTAVYYCAARVYRYRHYDYWGQGTQVTVSS", "polyreactivity (PSR sort gate)": "high polyreactivity"}, {"sequence": "QVQLVESGGGLVQAGGSLRLSCAASGLFFYAYSMGWYRQAPAKERELVAAISGSGGNTYYADSVKGRFTISRDNAKNSVYLQMNSLKQEDTAVYYCAADYTAAYPDSMYYWGQGTQVTVSS", "polyreactivity (PSR sort gate)": "low polyreactivity"}, {"sequence": "QVQLVESGGGLVQAGGSLRLICAASGRTLWWYAMGWYRQAPGKESELVAAIDYSDGNTYYADSVKGRFTISRDYAKNTVYLQMNSLKPEDTAVYFCAAEGYYNYGSYYWGQGTQVTVSS", "polyreactivity (PSR sort gate)": "high polyreactivity"}, {"sequence": "QVQLVESGGGLVEAGGSLRLSCAASGFNIPIYAMGWYRPAPGKERELVASITRSGGSTYYADSVKGRFTISRDNAMNTVYLQMNSLKPEDTAVYFCAASVKIISYLVHSELLGGELDYWGQGTQVTVSS", "polyreactivity (PSR sort gate)": "low polyreactivity"}, {"sequence": "QVHLVESGGGLVQAGGSLRLSCAASGRTFRYYAMGWYRQAPGKERELVAAITGSGGRTYYADSVKGRFTISRDNAKNTVYLQMNTLKPEDTAVYYCNRDPDIYICYDYWGQGTQVTVSS", "polyreactivity (PSR sort gate)": "high polyreactivity"}, {"sequence": "QVQLVESGGGLVQAGGSLRLSCAASGSTFWYYAMGWYRQAPGKERELVAAIRWSDGSTYYADSVKGRFTISRDNAKNTVYLQMNSLKPEDTAVYYCEYYYWGQGTQVTVSS", "polyreactivity (PSR sort gate)": "low polyreactivity"}, {"sequence": "QVQLVESGGGLVQAGGSLRLSCAASGSTLSFNAMGWYRQAPGKERELVAGITYSGGSTYYADYVKGRFTISRDNAKNTVYLQMNSLKPEDTAVYYCNKASGVYYGHLDYWGQGTQVTVSS", "polyreactivity (PSR sort gate)": "low polyreactivity"}, {"sequence": "QVQLVESGGGLVQAGGSLRLSCAASGRTFVDYDMGWYRQAPGKERELVADINSGGSTYYADSVKGRFTISRDNAKNTVYLQMNSQKPEDTAVYDCAVRSRGTAPQYYYWGQGTQVTVSS", "polyreactivity (PSR sort gate)": "high polyreactivity"}, {"sequence": "QVQLVESGGGLVNAGGTLRLSCAASGSTFYRNAMGWYRQAPGKERELVATITYSGGSTYYADSVKGRFTNSRDNAKNTVYLQMNSLKPEDTAVYYCAVRRLRRNFVSYYYWGQGTQVTVSS", "polyreactivity (PSR sort gate)": "high polyreactivity"}, {"sequence": "QVQLVESGGGLVQAGGSLRLSCAASGSTFVYNTMGWSRQAPGKERELVADITWRGASTYYADSVKGRFTISRDNAKNTVYLQMNSLKPEDTAVYYCAADYYSATGSYAYDYWGQGTQVTVSS", "polyreactivity (PSR sort gate)": "low polyreactivity"}, {"sequence": "QVQLVESGGGLVQAGGSLRLSCAASGSTFYAYVMGWYRQAPGKERELVAAIRSSGGRTYYADSVKGRFTISRDNAKNTLYLQMNSLKPEDSAVYYCAKAIWATRQYLRFTDYDYWGQGTQVTVSS", "polyreactivity (PSR sort gate)": "high polyreactivity"}, {"sequence": "QDQLVESGGGLVQAGGSLRLSCAASGIILGGYVMGWYRQAPGKERELVAALSYSGGRTDYADSVKGRFTISRDKAKNTVYLQMNILNPEDTAVYYCATEYWRYHGITKGYTRYDYWGQGTQVTVSS", "polyreactivity (PSR sort gate)": "high polyreactivity"}, {"sequence": "QVQLVESGGGLVQAGGSLRLSCAASGIIFDYNAMGWYRPAPGKERELVAAISGRSGRTYYADSVKGRFTISRDNAKNTVYLQMNSLKPEDTAVYYCAARWYAGGNYWGQGTQVTVSS", "polyreactivity (PSR sort gate)": "high polyreactivity"}, {"sequence": "QVQLVASAGGLVQAGRSLRLSCAASGRIFSWYTMGWYRQAPGKERELVADITYSGGSTYYADSVKGRFTISRDNAKNTVYLQMNSLKPEDTAVVYCIADPRWYHFEYGYWGQGTQVTVSS", "polyreactivity (PSR sort gate)": "high polyreactivity"}, {"sequence": "QVQLVESGRGLVQAGGSLRLSCAASGSTLATYTMGWYRQAPGKERELVPAISFGGSTYYADSVKGRFTISRDNAKNTVYLQMNSLKPEDTAVYYCAVYGDSYWGAYYYSDGYWGQGTQVTVSS", "polyreactivity (PSR sort gate)": "low polyreactivity"}, {"sequence": "QVQLVESGGGLVQAGGSLRLSCAASGLTVYYYAMGWYRQAPGKERELVASISRSGGSTYYADSVKGSFTISRDNAKNTVYLQMNSLKPEDTAVYYCNVSVYRCTVKGTFDMDHWGQGTQVTVSW", "polyreactivity (PSR sort gate)": "high polyreactivity"}, {"sequence": "QVQLVESGGGLVKAGGSLRLSCAPSGSTFKSYSMGWYRQAPGIECELVAAITSGGRTYYADSVKGRFTISRDNAKNTVYLQMNSLKPEDTAVYYCAALRVQQVKSYYYWGQGTQVTVSS", "polyreactivity (PSR sort gate)": "high polyreactivity"}, {"sequence": "QVQLVESRGRLVQAGGSLRLSCAASGYTFNHNAMGWYRPAPGKETELVAVITPRAGSTYYADSVKGRFTISRDNAKNTVYLQKNSLKPEDSAVYYCNADGFVRRTLRYDYWVQGTQVTVSS", "polyreactivity (PSR sort gate)": "high polyreactivity"}, {"sequence": "QVQLVESGAVLVQAGGSIRLSCAASGSSFPYYAMGWYRQAPVKERELVATISQDGGRTYADSVKGRFTISRDNAKNTVYLQMNSLKPEDTAVDYCAADYSVNYDFGYWGQGTQVTVSS", "polyreactivity (PSR sort gate)": "low polyreactivity"}, {"sequence": "QIQLVESGGGLVQAGGSLRLSCAASGSIFSKYAMGWYRQAPGKERELVAAISAGGGSTYYADSVKGRFTISRDNAKNTVYLQMNSLKPEDTAVYYCAARSRFRFDYWVQGTQVTVSS", "polyreactivity (PSR sort gate)": "high polyreactivity"}, {"sequence": "QVQLVESGRGLVQAGGSLRLRGAASGSTSWSNAMGWYRQAPGKERELVAAITTGASTYYADSVKGRFTSSRDNAKNTVYLQMNSLKPEDTAVYYCAADPWVLWSYYYWGQGTQVTVSS", "polyreactivity (PSR sort gate)": "low polyreactivity"}, {"sequence": "QVQLVESGGGLVQAGGSLRLSCAASGSIFVDYTMGWYRQAPGKERELVAAITYRGTRTYYADSVKGRFTISRDNAKNTVYLQMNSLKPEDTAVYYCNKLYRRYPVPREYDYWGQGTQVSVSS", "polyreactivity (PSR sort gate)": "high polyreactivity"}, {"sequence": "QVQLVESAGGLVQAGGSLSLSCAASGGTFSTNAMGWYRQAPGQERELVAAISLSGGRTYADSVKGRFTISLDNAKNTVYLQMNSLKPEDTAVYYCNADSAGITRARSELDYWGQGTQVTVSS", "polyreactivity (PSR sort gate)": "low polyreactivity"}, {"sequence": "RVQLQESGGGLVQAGGSLRLSCAASGTIFNRGDMGWYRQAPGKEREFVATIDTGSNTYYADSEKGPFTISRDNAKNAVYLQMNCLKPGATAVYYCVVDYQLSGRLRYWGQGTQVTLSS", "polyreactivity (PSR sort gate)": "low polyreactivity"}]}]}
